Substitutions are numbered along the chain they refer to. In names and notes the source's numbering stands.
B1: N405A: chimeric modified caspase-9 polypeptide variant (protein, UniProt P55211 1-416, looked up, variant N405A)
chain: MDEADRRLLRRCRLRLVEELQVDQLWDALLSRELFRPHMIEDIQRAGSGSRRDQARQLIIDLETRGSQALPLFISCLEDTGQDMLASFLRTNRQAAKLSKPTLENLTPVVLRPEIRKPEVLRPETPRPVDIGSGGFGDVGALESLRGNADLAYILSMEPCGHCLIINNVNFCRESGLRTRTGSNIDCEKLRRRFSSLHFMVEVKGDLTAKKMVLALLELAQQDHGALDCCVVVILSHGCQASHLQFPGAVYGTDGCPVSVEKIVNIFNGTSCPSLGGKPKLFFIQACGGEQKDHGFEVASTSPEDESPGSNPEPDATPFQEGLRTFDQLDAISSLPTPSDIFVSYSTFPGFVSWRDPKSGSWYVETLDDIFEQWAHSEDLQSLLLRVANAVSVKGIYKQMPGCFAFLRKKLFFKTS
modifications: chimeric, fused to FKBP12v36
notes: chimeric modified caspase-9 polypeptide variant
B2: D315A: chimeric modified caspase-9 polypeptide variant (protein, UniProt P55211 1-416, looked up, variant D315A)
chain: B1 chain with D315A, A405N
modifications: chimeric, fused to FKBP12v36
notes: as for B1
B3: ^402GCFNF^406ISAQT: caspase-9 with 402-406 residues replaced by those of Caspase-10 (protein, UniProt P55211 1-416, looked up, variant G402I C403S F404A N405Q F406T)
chain: B1 chain with G402I, C403S, F404A, A405Q, F406T
modifications: residues from caspase-10
B4: G402Y: chimeric modified caspase-9 polypeptide variant (protein, UniProt P55211 1-416, looked up, variant G402Y)
chain: B1 chain with G402Y, A405N
modifications: chimeric with dimerization domain
notes: as for B1
B5: D315A-D330A: chimeric modified caspase-9 polypeptide double mutant (protein, UniProt P55211 1-416, looked up, variant D315A D330A)
chain: B1 chain with D315A, D330A, A405N
modifications: chimeric, fused to FKBP12v36
notes: chimeric modified caspase-9 polypeptide double mutant
B6: C403P: chimeric modified caspase-9 polypeptide variant (protein, UniProt P55211 1-416, looked up, variant C403P)
chain: B1 chain with C403P, A405N
modifications: chimeric, fused to FKBP12v36
notes: as for B1
B7: G402Q: chimeric modified caspase-9 polypeptide variant (protein, UniProt P55211 1-416, looked up, variant G402Q)
chain: B1 chain with G402Q, A405N
modifications: chimeric, fused to FKBP12v36
notes: as for B1
B8: N405T: chimeric modified caspase-9 polypeptide variant (protein, UniProt P55211 1-416, looked up, variant N405T)
chain: B1 chain with A405T
modifications: chimeric, fused to FKBP12v36
notes: as for B1
B9: G402I: chimeric modified caspase-9 polypeptide variant (protein, UniProt P55211 1-416, looked up, variant G402I)
chain: B1 chain with G402I, A405N
modifications: chimeric, fused to FKBP12v36
notes: as for B1
B10: N405F: chimeric modified caspase-9 polypeptide variant (protein, UniProt P55211 1-416, looked up, variant N405F)
chain: B1 chain with A405F
modifications: chimeric, fused to FKBP12v36
notes: as for B1

Each molecule was assayed on HEK293T/16 cells (assay: SEAP reporter-based surrogate killing assay (basal activity and AP1903 IC50)). Settings: AP1903-independent SEAP activity, vs wild type.
Assay type: cell-based, human
Experimental: FIG. 45 provides a schematic of an analysis of SEAP assays. […] of the mixture was seeded onto each well of a 96-well plate. […] For the assay, 4-methylumbelliferyl phosphate substrate was hydrolyzed by SEAP to 4-methylumbelliferon, a metabolite that can be excited with 364 nm and detected with an emission filter of 448 nm. Since SEAP is used as a marker for cell viability, reduced SEAP reading corresponds with increased icaspase-9 activities.
Early passage HEK293T/16 cells (ATCC, Manassas, Va.) were maintained in IMDM, GlutaMAX™ (Life Technologies, Carlsbad, Calif.) supplemented with 10% FBS, 100 U/mL penicillin, and 100 […] until transfection in a humidified, 37° C., 5% CO2/95% air atmosphere. Cells in logarithmic-phase growth were transiently transfected with 800 ng to 2 μg of expression plasmid encoding iCasp9 mutants and 500 ng of an expression plasmid encoding SRα promoter driven SEAP per million cells in 15-mL conical tubes. […] GeneJammer® Transfection Reagent at a ratio of 3 μl per ug of plasmid DNA was used to transiently transfect HEK293T/16 cells in the absence of antibiotics. 100 μl or 2 mL of the transfection mixture was added to each well in 96-well or 6-well plate, respectively.
Briefly, after 65° C. heat denaturation for 45 minutes to reduce background caused by endogenous (and serum-derived) alkaline phosphatases that are sensitive to heat, 5 μl of supernatants was added to 95 μl of PBS and added to 100 μl of substrate buffer, containing 1 μl of 100 mM 4-methylumbelliferyl phosphate (4-MUP; Sigma, St. Louis, Mo.) re-suspended in 2 M diethanolamine. Hydrolysis of 4-MUP by SEAP produces a fluorescent […] with excitation/emission (355/460 nm), which can be easily measured. Assays were performed in black opaque 96-well plates to minimize fluorescence leakage between wells (FIG. 45).

Q: B1 was tested. Which “basal activity / basal signaling (in words)” value did it give?
A: Its value is “no effect”.

Q: With B2 as the molecule, how does the “basal activity / basal signaling (in words)” value read?
A: Its value is “reduced basal activity”.

Q: How did the “basal activity / basal signaling (in words)” value turn out when B3 was run?
A: Its value is “reduced basal activity”.

Q: How did the “basal activity / basal signaling (in words)” value turn out when B4 was run?
A: Its value is “catalytically inactive”.

Q: How did the “basal activity / basal signaling (in words)” value turn out when B5 was run?
A: Its value is “inactive”.

Q: With B6 as the molecule, how does the “basal activity / basal signaling (in words)” value read?
A: Its value is “catalytically inactive”.

Q: Which “basal activity / basal signaling (in words)” value does the source give for B7 here?
A: The value was “catalytically inactive”.

Q: For B8, which “basal activity / basal signaling (in words)” value is on record?
A: Its value is “increased basal activity”.

Q: For B9, which “basal activity / basal signaling (in words)” value is on record?
A: The value was “catalytically inactive”.

Q: With B10 as the molecule, how does the “basal activity / basal signaling (in words)” value read?
A: The value was “lowered basal activity”.

— patent publication US20150328292A1, “CASPASE POLYPEPTIDES HAVING MODIFIED ACTIVITY AND USES THEREOF” (BELLICUM PHARMACEUTICALS, INC., priority 2014, published 2015)
